The source of these data is patent EP1230262B1 (BROWN UNIVERSITY RESEARCH FOUNDATION, dated 2017).

The chains are these.
B1: decorin proteoglycan (core and side chains), recombinant, vaccinia system (other, UniProt P07585 31-359, looked up)
chain: DEASGIGPEVPDDRDFEPSLGPVCPFRCQCHLRVVQCSDLGLDKVPKDLPPDTTLLDLQNNKITEIKDGDFKNLKNLHALILVNNKISKVSPGAFTPLVKLERLYLSKNQLKELPEKMPKTLQELRAHENEITKVRKVTFNGLNQMIVIELGTNPLKSSGIENGAFQGMKKLSYIRIADTNITSIPQGLPPSLTELHLDGNKISRVDAASLKGLNNLAKLGLSFNSISAVDNGSLANTPHLRELHLDNNKLTRVPGGLAEHKYIQVVYLHNNNISVVGSSDFCPPGHNTKKASYSGVSLFSNPVQYWEIQPSTFRCVYVRSAIQLGNYK
modifications: glycosaminoglycan side chain
notes: also called DEC-PG; DECPG
B2: decorin core (no side chains), recombinant, vaccinia system (other, UniProt P07585 31-359, looked up)
chain: DEASGIGPEVPDDRDFEPSLGPVCPFRCQCHLRVVQCSDLGLDKVPKDLPPDTTLLDLQNNKITEIKDGDFKNLKNLHALILVNNKISKVSPGAFTPLVKLERLYLSKNQLKELPEKMPKTLQELRAHENEITKVRKVTFNGLNQMIVIELGTNPLKSSGIENGAFQGMKKLSYIRIADTNITSIPQGLPPSLTELHLDGNKISRVDAASLKGLNNLAKLGLSFNSISAVDNGSLANTPHLRELHLDNNKLTRVPGGLAEHKYIQVVYLHNNNISVVGSSDFCPPGHNTKKASYSGVSLFSNPVQYWEIQPSTFRCVYVRSAIQLGNYK

Common to all, as to experiment: overlay assay with 35S in vitro translated sarcoglycan
Experiment [1] concerns the target T1, α-sarcoglycan, recombinant human, 35S-labelled, in vitro transcribed and translated (human, UniProt Q16586 1-387, limits assumed, 35S label; not glycosylated).
T1 construct: also called alpha-sarcoglycan
T1 sequence (looked up): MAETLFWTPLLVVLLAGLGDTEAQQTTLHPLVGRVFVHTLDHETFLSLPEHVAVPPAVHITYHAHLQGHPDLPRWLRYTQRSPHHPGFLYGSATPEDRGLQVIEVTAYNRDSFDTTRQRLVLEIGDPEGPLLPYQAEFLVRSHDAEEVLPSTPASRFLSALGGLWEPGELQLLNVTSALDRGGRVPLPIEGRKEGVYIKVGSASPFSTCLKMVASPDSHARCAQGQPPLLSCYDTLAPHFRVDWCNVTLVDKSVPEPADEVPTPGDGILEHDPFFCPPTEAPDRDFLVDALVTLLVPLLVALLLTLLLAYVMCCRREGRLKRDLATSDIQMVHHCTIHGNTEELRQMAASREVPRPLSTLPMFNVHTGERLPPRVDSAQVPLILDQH

For experiment [2], the target named is B2.
Experiment [3] addresses B1.

In the case of B1, in experiment [1], the binding result was “no binding”.

Regarding B2, the binding result in experiment [1] is given as “no binding”.

B3: γ-sarcoglycan, recombinant human, 35S-labelled, in vitro transcribed and translated (other, UniProt Q13326 1-291, looked up)
chain: MVREQYTTATEGICIERPENQYVYKIGIYGWRKRCLYLFVLLLLIILVVNLALTIWILKVMWFSPAGMGHLCVTKDGLRLEGESEFLFPLYAKEIHSRVDSSLLLQSTQNVTVNARNSEGEVTGRLKVGPKMVEVQNQQFQINSNDGKPLFTVDEKEVVVGTDKLRVTGPEGALFEHSVETPLVRADPFQDLRLESPTRSLSMDAPRGVHIQAHAGKIEALSQMDILFHSSDGMLVLDAETVCLPKLVQGTWGPSGSSQSLYEICVCPDGKLYLSVAGVSTTCQEHNHICL
modifications: 35S label; not glycosylated
notes: also called gamma-sarcoglycan
With B3, the binding result in experiment [2] and in experiment [3] was “no binding” throughout.
